Our source for the fold reduction of affinity against wild-type Nsp3 SUD-M and fold lower affinity than NCOA2 (1074–1089) values is article PMC10499821.

Assay [1] has as its target FITC-PRDM14_(197–213) (human). In words: fluorescence polarisation. (In general: Polarisation of emitted light reports the rotation of a fluorescent probe.)
For the next assay, the target named is Nsp3 Ubl1 (SARS-CoV-2) (UniProt P0DTD1). In words: fluorescence polarisation.

Take “Nsp3 SUD-M A1397E, V1453K, S1478D (from UniProt P0DTD1 819-2763) (domain or fragment)”: the fold reduction of affinity against wild-type Nsp3 SUD-M in assay [1] was determined as 100 fold.

For the substance “Y to V mutant of the NCOA2_(1074–1089) peptide (from UniProt Q15596 1074-1089)”, the fold lower affinity than NCOA2 (1074–1089) in the assay with Nsp3 Ubl1 (SARS-CoV-2) came to 20 fold.
